Experimental data taken from US20240417436A1 (BRIGHT PEAK THERAPEUTICS, published 2024).
Read-outs that look alike come from different tables or passages of the source. Bridges are numbered along the chain shown (N, C = ends). [ ]: non-standard residue; d: D form. Ygp = O-(8x polyethylene glycol-amino)-tyrosine; Yn3 = O-(9x polyethylene glycol-azido)-tyrosine; hSer = N[C@@H](CCO)C(=O)O; Nle = CCCC[C@H](N)C(=O)O

Tests used:
[1] = target: T1, recombinant human IL-2 receptor beta containing a His-tag and Avi-Tag (R&D Systems #AVI10459) (human, UniProt P14784 27-239); test: BLI (Octet), receptor on SAX2 sensor, IL-2 as analyte; construct CMP-165, intact (not the MMP2-treated row r16)
T1 construct: bought protein, held on the Octet SAX2 sensor; also called CD122; IL-2Rβ
T1 sequence (looked up): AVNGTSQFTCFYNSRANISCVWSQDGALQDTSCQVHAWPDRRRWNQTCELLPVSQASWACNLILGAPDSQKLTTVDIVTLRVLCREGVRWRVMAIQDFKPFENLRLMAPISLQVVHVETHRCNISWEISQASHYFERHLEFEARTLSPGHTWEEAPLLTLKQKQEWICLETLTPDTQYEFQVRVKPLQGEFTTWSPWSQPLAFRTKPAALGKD
Experimental: (§1) Bilayer interferometry (BLI) assays were used to measure the binding constants between activatable IL-2 polypeptides (and activated versions thereof) to IL-2 receptor subunits or receptor complexes. BLI assays were conducted on an Octet® R8 instrument. Assay plates were 96 well, polypropylene, F-bottom (chimney well), black microplates (Greiner Bio-one, Cat. No: 655209). The biosensors were Octet® SAX2 (Sartorius, Cat. No: 18-5136). The assay buffer was 1× Kinetic Buffer (Sartorius, Cat. no: 18-5136) or Phosphate Buffered Saline (PBS) that contained 0.02% (v: v) Tween 20 (Polysorbate 20) and 0.1% (w/v) bovine serum albumin (BSA). The sensor was regenerated between measurements in 10 mM glycine pH 2.7 buffer.
(§2) Sensor attached receptors were either recombinant human IL-2 receptor beta containing a His-tag and Avi-Tag™ (R&D Systems™ #AVI10459) or an Avi-Tag™ Fc with human IL-2R beta and IL-2R gamma attached (Acrobiosystems Cat. no: ACRB-ILG-H82F3-25UG). Receptors were reconstituted from lyophilized powder to 500 μg/ml in PBS. Analytes were diluted in Kinetic buffer to 300 nM, then serially diluted to lower concentrations.

[2] = target: T2, IL-2 receptor βγ complex on pan T cells (human, UniProt P14784 27-551; P31785 23-369); test: cell-based or functional assay
T2 sequence (looked up) 1: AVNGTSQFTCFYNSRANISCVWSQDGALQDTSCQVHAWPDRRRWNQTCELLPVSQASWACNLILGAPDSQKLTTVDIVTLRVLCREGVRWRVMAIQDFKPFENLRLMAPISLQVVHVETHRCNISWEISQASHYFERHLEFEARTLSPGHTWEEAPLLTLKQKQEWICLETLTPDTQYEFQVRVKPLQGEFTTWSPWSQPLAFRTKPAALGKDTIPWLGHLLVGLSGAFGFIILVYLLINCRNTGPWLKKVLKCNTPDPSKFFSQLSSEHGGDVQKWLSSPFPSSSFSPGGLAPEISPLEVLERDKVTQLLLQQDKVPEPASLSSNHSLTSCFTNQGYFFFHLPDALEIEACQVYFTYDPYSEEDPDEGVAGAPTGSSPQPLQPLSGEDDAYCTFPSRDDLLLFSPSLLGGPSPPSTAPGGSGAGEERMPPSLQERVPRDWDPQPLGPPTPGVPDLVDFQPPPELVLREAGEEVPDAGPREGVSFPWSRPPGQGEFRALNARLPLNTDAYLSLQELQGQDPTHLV
T2 sequence (looked up) 2: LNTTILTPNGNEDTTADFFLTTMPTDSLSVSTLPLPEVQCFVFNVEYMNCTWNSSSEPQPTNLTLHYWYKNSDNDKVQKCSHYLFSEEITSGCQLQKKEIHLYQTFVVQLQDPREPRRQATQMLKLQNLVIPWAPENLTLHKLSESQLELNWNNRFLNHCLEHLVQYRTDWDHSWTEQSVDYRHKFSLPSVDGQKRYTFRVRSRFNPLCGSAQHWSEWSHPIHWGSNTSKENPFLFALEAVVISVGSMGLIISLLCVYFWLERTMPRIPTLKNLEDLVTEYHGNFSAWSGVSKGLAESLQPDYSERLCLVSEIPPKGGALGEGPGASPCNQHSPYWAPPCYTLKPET

[3] = target: T1, recombinant human IL-2 receptor beta …; test: BLI (Octet), receptor on SAX2 sensor, IL-2 as analyte
Experimental: as §1, §2

[4] = target: T3, Avi-Tag Fc with human IL-2R beta and IL-2R gamma attached (Acrobiosystems ACRB-ILG-H82F3-25UG) (human, UniProt P14784 27-239; P31785 23-262); test: as above
T3 construct: bought heterodimer; also called CD122 CD132; CD122/CD132 complex
T3 sequence (looked up) 1: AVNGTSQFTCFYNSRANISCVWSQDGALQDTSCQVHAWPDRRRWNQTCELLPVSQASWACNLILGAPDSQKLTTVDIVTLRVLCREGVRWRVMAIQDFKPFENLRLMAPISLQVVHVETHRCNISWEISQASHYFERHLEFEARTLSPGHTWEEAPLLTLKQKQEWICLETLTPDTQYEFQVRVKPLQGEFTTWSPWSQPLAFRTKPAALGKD
T3 sequence (looked up) 2: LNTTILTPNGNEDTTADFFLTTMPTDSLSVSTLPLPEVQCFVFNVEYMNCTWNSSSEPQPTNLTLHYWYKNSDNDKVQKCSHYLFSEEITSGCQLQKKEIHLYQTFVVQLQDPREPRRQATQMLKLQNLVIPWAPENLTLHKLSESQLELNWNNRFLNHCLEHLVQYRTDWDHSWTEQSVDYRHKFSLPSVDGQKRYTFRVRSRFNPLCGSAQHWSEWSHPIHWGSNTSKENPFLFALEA
Experimental: as §1, §2

[5] = target: T1, recombinant human IL-2 receptor beta …; test: BLI (Octet), receptor on SAX2 sensor, IL-2 as analyte; construct CMP-168, intact (not the MMP2-treated row r13)
Experimental: as §1, §2

[6] = target: T2, IL-2 receptor βγ complex on pan T cells; test: cell-based or functional assay; remark: listed apart in the source
[7] = target: T1, recombinant human IL-2 receptor beta …; test: BLI (Octet), receptor on SAX2 sensor, IL-2 as analyte; construct CMP-151, macrocyclic activatable IL-2 polypeptide
Experimental: as §1, §2

[8] = target: human PD-1 on Jurkat T cells (PD-1/PD-L1 Blockade Bioassay) (human, UniProt Q15116 25-288); test: cell-based or functional assay
mouse CD64 = target: T4, mouse CD64 (mouse, UniProt P26151 25-297, limits assumed); test: ELISA, analogous protocol with mouse CD64
T4 construct: construct not described; also called mouse FcgR I (CD64)
T4 sequence (looked up): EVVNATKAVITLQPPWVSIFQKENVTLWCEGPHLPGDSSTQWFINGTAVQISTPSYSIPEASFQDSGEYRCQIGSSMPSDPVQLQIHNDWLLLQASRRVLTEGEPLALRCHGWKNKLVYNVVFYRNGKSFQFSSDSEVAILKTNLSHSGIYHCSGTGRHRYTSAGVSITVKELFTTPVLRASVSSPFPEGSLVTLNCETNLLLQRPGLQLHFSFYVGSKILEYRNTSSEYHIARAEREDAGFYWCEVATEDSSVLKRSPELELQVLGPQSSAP

mouse FcRn = target: T5, mouse FcRn (mouse, UniProt Q61559 22-297; P01887 21-119, limits assumed); test: analogous AlphaLISA protocol with mouse FcRn
T5 construct: construct not described
T5 sequence (looked up): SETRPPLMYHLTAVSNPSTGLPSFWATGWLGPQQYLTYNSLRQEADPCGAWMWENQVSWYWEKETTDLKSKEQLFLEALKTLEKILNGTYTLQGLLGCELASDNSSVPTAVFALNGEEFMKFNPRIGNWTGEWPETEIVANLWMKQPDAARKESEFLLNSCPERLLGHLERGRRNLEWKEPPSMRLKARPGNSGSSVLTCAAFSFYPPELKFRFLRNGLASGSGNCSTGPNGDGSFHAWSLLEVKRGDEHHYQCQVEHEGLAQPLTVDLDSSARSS
T5 sequence (b2m, looked up): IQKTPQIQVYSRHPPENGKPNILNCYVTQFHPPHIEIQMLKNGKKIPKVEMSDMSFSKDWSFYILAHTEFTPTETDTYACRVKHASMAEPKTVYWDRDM
Experimental: (§3) FcRn Binding Assays—The ability of the activatable immunocytokines to bind to FcRn receptor was performed following manufacturer's instructions using the AlphaLISA FcRn Human Binding kit, Perkin Elmer, Cat #AL3095C. An analogous protocol was performed husing mouse FcRn.

[9] = target: T6, human FcRn (AlphaLISA FcRn Human Binding kit, Perkin Elmer AL3095C) (human, UniProt P55899 24-297; P61769 21-119, limits assumed); test: AlphaLISA FcRn Human Binding kit (competition)
T6 construct: kit reagent, construct not described
Experimental: as §3

[10] = target: T7, recombinant Human Fc gamma RI/CD64 Protein (R&D systems, 1257-FC-050) (human, UniProt P12314 16-288); test: ELISA, test molecule coated, human CD64 titrated
T7 construct: also called human FcgR I (CD64); FcγRI
Experimental: FcγRI (CD64) Binding Assays—The interaction of the activatable immunocytokines with human Fc gamma receptors I (FcγRI/CD64) was measured by ELISA. Briefly, Corning high-binding half-area plates (Fisher Scientific, Reinach, Switzerland) were coated overnight at 4° C. with 25 μl of immunocytokines at […] in PBS. Plates were then washed four times with 100 μl of PBS-0.2% Tween20 (wash buffer). Plates surfaces were blocked with 25 μl of PBS1% BSA at 37° C. for 1h. Plates were then washed four times with wash buffer. Then twenty-five microliters of either recombinant Human Fc gamma RI/CD64 Protein (R&D systems, 1257-FC-050, CF) was added in serial dilutions into PBS-T-0.1% BSA and incubated at 37° C. for 2h. Plates were then washed four times with 100 μl of wash buffer. Twenty-five microliters of Streptavidin-Horseradish peroxidase (#RABHRP3, Merck, Buchs, Switzerland) diluted into PBS-T-0.1% BSA were added to each well and incubated at Room Temperature for 1h. Plates were then washed four times with wash buffer. TMB substrate reagent (#CL07, Merck, Buchs, Switzerland) were added to each well and incubated for 5 min. After 5 min, Horseradish peroxidase reaction was stopped by adding 1M H2SO4 stop solution. ELISA signal was then measured at 450 nm on a plate reader.

[11] = target: T8, recombinant biotinylated PD1/CD279 protein (Biolegend 789406) (human, UniProt Q15116 25-167, limits assumed, biotinylated); test: ELISA, test molecule coated, biotinylated PD-1 titrated, streptavidin-HRP
T8 construct: also called human PD1
Experimental: Plates were then washed four times with 100 μl of PBS-0.2% Tween20 (wash buffer). […] Plates were then washed four times with 100 μl of wash buffer. […] Plates were then washed four times with wash buffer. […] Plates were then washed four times with 100 μl of wash buffer. Fifty microliters of TMB substrate reagent (#CL07, Merck, Buchs, Switzerland) were added to each well and incubated at 37° C. during 5 min. After 5 min at 37° C., Horseradish peroxidase reaction was stopped by adding 50 μl/well of 0.5M H₂SO₄ stop solution. ELISA signal was then measured at 450 nm on an EnSpire plate reader from Perkin Elmer (Schwerzenbach, Switzerland).

B1: CMP-165 (ligand)
chain: APTSSSTKKTQLQLEHLLLDLQKILNGINNYKNPKLTR[Nle]L[hSer][Yn3]KF[Ygp][Nle]PKKATELKHLQCLEEELKPLEEVL[hSer]LAQSKNFHLRPRDLISNINVIVLELKGSETTF[hSer]CEYADETATIVEFLNRWITFSQSIISTLT
modifications: disulfide 58-105 (inferred); bridge N-23; not fully specified (bridges)
Kd [1]: 44.2 µM

B2: CMP-168 (ligand)
chain: APTSSSTKKTQLQLEHLLLDLQEILNGINNYKNPKLTR[Nle]L[hSer][Yn3]KF[Ygp][Nle]PKKATELKHLQCLEEELKPLEEVL[hSer]LAQSKNFHLRPRDLISNINVIVLELKGSETTF[hSer]CEYADETATIVEFLNRWITFSQSIISTLT
modifications: disulfide 58-105 (inferred); bridge 9-23; not fully specified (residue 23, bridges)
Average EC50, pSTAT5 assay in pan T cells, intact molecule [2]: 144 nM | koff [3]: 0.0721 s⁻¹ | kon [3]: 2880 M⁻¹ s⁻¹ | Kd [4]: 136 nM | koff [4]: 0.0022 s⁻¹ | kon [4]: 16200 M⁻¹ s⁻¹ | Kd [5]: 25.1 µM

B3: CMP-151 (ligand)
chain: APTSSSTKKTQLQLEHLLLDLQKILNGINNYKNPKLTR[Nle]L[hSer][Yn3]KF[Ygp][Nle]PKKATELKHLQCLEEELKPLEEVL[hSer]LAQSKNFHLRPRDLISNINVIVLELKGSETTF[hSer]CEYADETATIVEFLNRWITFSQSIISTLT
modifications: disulfide 58-105; bridge N-23; not fully specified (bridges)
Average EC50, pSTAT5 assay in pan T cells, intact molecule [6]: 28.2 nM | Kd [7]: 65.4 nM

B4: LZM-009 (antibody, human IgG4 S228P, kappa)
heavy: not shown
light: EIVLTQSPATLSLSPGERATISCRASKGVSTSGYSYLHWYQQKPGQAPRLLIYLASYLESGVPARFSGSGSGTDFTLTISSLEPEDFATYYCQHSRELPLTFGTGTKVEIKRTVAAPSVFIFPPSDEQLKSGTASVVCLLNNFYPREAKVQWKVDNALQSGNSQESVTEQDSKDSTYSLSSTLTLSKADYEKHKVYACEVTHQGLSSPVTKSFNRGEC
notes: unconjugated anti-PD-1 IgG4; also called LZM-009 Intact
Mean EC50, PD1/PD-L1 blockade (NFAT-RE luciferase reporter) [8]: 7.34 nM | EC50 (mouse CD64): 554 nM | EC50 (mouse FcRn): 0.77 nM | IC50 [9]: 5.79 nM | EC50 [10]: 0.32 nM | EC50 [11]: 0.05 nM
